Reference: patent publication US20220289857A1 (Kyowa Kirin, published 2022)
Substitutions are numbered along the chain they refer to. In names and notes the source's numbering stands. Several values for one entry are separate records, joined by “and”; a condition that tells them apart may be missing. Equal values may be shown once.

Key:
[1] = biological target: T1, untagged human Fn14 extracellular domain (aa 28-75), SUMO-cleaved (human, UniProt Q9NP84 28-75); assay: co-crystal structure
T1 construct: Electron density seen for residues 32-68; also called Fn14 (crystallization)
Method: Purified Fn14 and His-tagged 41c Fab or R35B9 Fab proteins were mixed in a 1:1 stoichiometric ratio, concentrated to 1 mg/mL and then subjected to crystallization. Initial crystallization trials were performed in a 96-well format using a nano-liter dispensing liquid handling robot (Phoenix, Art Robbins Ltd.) while mixing 0.15 μL protein with 0.15 μL precipitant from different commercially available crystallization screens (JCSG core+and JCSG core 1 screens). Over 200 crystallization conditions were tested using the sitting drop vapor diffusion method and crystallization trails were carried out at both 4° C. and 22° C. Optimization of all crystallization conditions was performed manually by both hanging drop and sitting drop methods. Crystals were obtained in various conditions containing PEG 3350 or PEG 6000 as the common precipitant and were grown over 3 days. […]
The structure had good geometry with 4 residues (0.89%) as outliers and 97.6% residues in favored region of the Ramachandran plot. Correspondingly, the structure of Fn14 -R35B9-His Fab complex was determined by molecular replacement using the phase information obtained from Fn14-41c-His Fab complex and the structure was refined to 2.3 Å with residual factors R/Rfree=20.9/23.3.

[2] = biological target: T2, human Fn14 (full length) on cells (human, UniProt Q9NP84 28-129); assay: cell-based or functional assay
T2 sequence: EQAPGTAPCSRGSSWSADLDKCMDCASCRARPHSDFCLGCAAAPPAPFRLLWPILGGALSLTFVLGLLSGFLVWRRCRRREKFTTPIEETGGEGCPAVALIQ

[3] = biological target: T3, human Fn14 Subdomain 2 peptide (AA51-70), biotinylated (human, added C-terminal Lys carries Ahx-biotin; C-terminal amide); assay: biolayer interferometry (ForteBio Octet); biotinylated peptide on streptavidin biosensor, response at 120 s of association
T3 peptide: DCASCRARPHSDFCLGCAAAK
Method: (§1) A ForteBio Octet Qke instrument (ForteBio) was used to measure the ability of purified antibodies to bind Fn14 peptides. The assays were performed at 30° C. in 96-well half area plates (Grenier, cat# 675076), with agitation set to 1000 rpm, in kinetic buffer (provided in the assay kit) to minimize nonspecific interactions. Biosensor tips were equilibrated in kinetic buffer for 600 s prior to use. Soluble biotinylated peptides (20 μg/ml, Subdomain 1 (AA30-50): […]-[K-Ahx-biotin]-amide (SEQ ID NO: 182) and Subdomain 2 (AA51-70): […]-[K-Ahx-biotin]-amide (SEQ ID NO: 183) synthesized by 21′ Century Biochemicals) in kinetic buffer were immobilized on streptavidin-coated biosensors (ForteBio, cat# 18-5020) for 300 seconds. […] Purified antibodies (20 μg/m1) were allowed to bind the immobilized peptides. Association was measured for 300 seconds, using the high sensitivity kinetics setting. To characterize the binding properties of the antibody candidates, the response (nm) at t =120 seconds from the start of the association step was recorded. All values were compared to a control sample (isotype antibody).

[4] = biological target: T4, human Fn14 Subdomain 1 peptide (AA30-50), biotinylated (human, added C-terminal Lys carries Ahx-biotin; C-terminal amide); assay: biolayer interferometry (ForteBio Octet); biotinylated peptide on streptavidin biosensor, antibody in solution, response at 120 s of association
T4 peptide: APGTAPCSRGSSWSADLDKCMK
Method: as §1

[5] = biological target: T5, cynomolgus macaque Fn14-GST (cynomolgus macaque (Macaca fascicularis)); assay: SPR Biacore T200; cyno Fn14-GST captured by anti-GST, Fab analyte; average of two runs
T5 construct: Used from culture supernatant, captured by anti-GST; also called cyno Fn14-GST; CynoFn14
T5 sequence (chain, as listed by the source): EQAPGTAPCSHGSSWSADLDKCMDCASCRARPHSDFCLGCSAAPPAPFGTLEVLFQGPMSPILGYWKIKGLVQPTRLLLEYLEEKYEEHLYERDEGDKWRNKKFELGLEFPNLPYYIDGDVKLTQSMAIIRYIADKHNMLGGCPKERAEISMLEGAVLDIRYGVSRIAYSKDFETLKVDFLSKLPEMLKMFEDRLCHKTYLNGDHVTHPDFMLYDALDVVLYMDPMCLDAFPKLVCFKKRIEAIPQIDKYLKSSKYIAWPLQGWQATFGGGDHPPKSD
Method: (§2) In order to kinetically analyze the binding activity of anti-Fn14 mouse antibodies 41c, R35B9, and CRCBT-06-002 to recombinant human and cynomolgus macaque Fn14 proteins, the binding activity was measured by surface plasmon resonance method (SPR). Antibodies were generated as described herein. All of the following procedures were carried out using a Biacore T200 (GE Healthcare Bio-Sciences). To determine antibody affinity to human Fn14, recombinant human His-SUMO-Fn14 was immobilized on a CMS sensor chip (GE Healthcare Bio-Sciences) by amine coupling chemistry. In particular, the kinetic assay was carried out by immobilizing on the chip approximately 20-30 RU of recombinant protein, in order to achieve a low protein immobilization level. To determine antibody affinity to cynomolgus macaque Fn14, polyclonal anti-GST antibodies were immobilized on a CMS sensor chip (GE Healthcare Bio-Sciences) by amine coupling chemistry. […] The dissociation time was 1800 seconds and the binding curves were measured at 25° C. […]
(§3) A sensorgram corresponding to each concentration was obtained (see FIG. 5). […] Cross-reactivity of anti-Fn14 mouse antibodies to recombinant mouse GST-Fn14 protein was measured as described above.

[6] = biological target: T6, His-SUMO-huFn14 (soluble human Fn14 aa 28-75 with N-terminal 6xHis-SUMO tag) (human); assay: SPR Biacore T200; His-SUMO-huFn14 amine-coupled, Fab analyte; 1:1 fit
T6 construct: also called His-SUMO-Fn14; His-SUMO-hFn14
T6 sequence (chain, as listed by the source limits assumed): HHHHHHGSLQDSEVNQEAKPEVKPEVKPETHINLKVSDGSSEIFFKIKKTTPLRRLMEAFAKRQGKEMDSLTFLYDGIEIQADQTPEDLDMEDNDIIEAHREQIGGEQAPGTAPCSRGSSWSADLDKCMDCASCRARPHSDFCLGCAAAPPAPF
Method: (§4) In order to kinetically analyze the binding activity of anti-Fn14 mouse antibodies 41c, R35B9, and CRCBT-06-002 to recombinant human and cynomolgus macaque Fn14 proteins, the binding activity was measured by surface plasmon resonance method (SPR). Antibodies were generated as described herein. All of the following procedures were carried out using a Biacore T200 (GE Healthcare Bio-Sciences). To determine antibody affinity to human Fn14, recombinant human His-SUMO-Fn14 was immobilized on a CMS sensor chip (GE Healthcare Bio-Sciences) by amine coupling chemistry. In particular, the kinetic assay was carried out by immobilizing on the chip approximately 20-30 RU of recombinant protein, in order to achieve a low protein immobilization level. To determine antibody affinity to cynomolgus macaque Fn14, polyclonal anti-GST antibodies were immobilized on a CMS sensor chip (GE Healthcare Bio-Sciences) by amine coupling chemistry. In particular, after immobilizing approximately 1500 RU of anti-GST capture antibody onto the chip, cynomolgus macaque GST-Fn14 in culture supernatant was allowed to run for 5 minutes at a flow rate of 30 μL/min in order to achieve a low capture level of approximately 20 RU. Thereafter, antibody Fab fragments, serially diluted from a high concentration, were allowed to run at a flow rate of 30 μL/min onto the chip for 300 seconds. The dissociation time was 1800 seconds and the binding curves were measured at 25° C. Regeneration was performed with 10 mM glycine pH 1.5 for 30 seconds. The raw data were double referenced by subtraction of the signals from a reference flow cell without immobilized ligand and a buffer blank.
(§5) A sensorgram corresponding to each concentration was obtained (see FIG. 5). Analysis was carried out using a 1:1 Langmuir fit model using the analysis software attached to the apparatus, Biacore T200 Evaluation software (Biacore), thereby calculating an association rate constant ka [M-1s-1] and a dissociation rate constant kd [s-1] for the recombinant Fn14 proteins. […] Cross-reactivity of anti-Fn14 mouse antibodies to recombinant mouse GST-Fn14 protein was measured as described above.

mouse Fn14-GST = biological target: T7, mouse Fn14-GST (mouse); assay: SPR (Biacore T200); mouse Fn14-GST captured by immobilized anti-GST antibody, analyte at 10 nM
T7 construct: also called mouse GST-Fn14
Method: as §2, §3

[7] = biological target: T6, His-SUMO-huFn14 (soluble human Fn14 aa …); assay: SPR Biacore T200; His-SUMO-huFn14 amine-coupled, Fab analyte; average of two runs
Method: as §2, §3

[8] = biological target: T5, cynomolgus macaque Fn14-GST; assay: SPR Biacore T200; cyno Fn14-GST captured by anti-GST, Fab analyte; 1:1 fit
Method: as §4, §5

B1: 41c-His Fab (recombinant, bacterial, for crystallization) (Fab, V domains shown)
VH: EVQLQQSGPELVKPGASVKMSCKASGYTFTDYNMHWVKQSHGKSLEWIGYINPNNGGTNYNQKFKGKATLTVNKSSRSAYMEFRSLTSEDSAVYYCASSGWFTYWGQGTLVTVSA
VL: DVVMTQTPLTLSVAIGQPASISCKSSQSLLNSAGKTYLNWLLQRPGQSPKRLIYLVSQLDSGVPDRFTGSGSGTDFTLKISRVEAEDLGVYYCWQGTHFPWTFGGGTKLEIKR
notes: Two extra N-terminal residues on each chain (Leu-Glu heavy, Ser-Arg light); C-terminal linker and 6xHis on the heavy chain; also called His-tagged 41c Fab
[1]
  binding result: binds

B2: R35B9-His Fab (recombinant, bacterial, for crystallization) (Fab, V domains shown)
VH: B1 VH with T28I, T30Q, Y50S, N54R, G57W
VL: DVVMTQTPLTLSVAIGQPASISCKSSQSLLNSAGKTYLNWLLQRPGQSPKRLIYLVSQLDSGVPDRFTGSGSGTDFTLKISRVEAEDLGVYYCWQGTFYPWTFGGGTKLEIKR
notes: also called R35B9 Fab-His
[1]
  binding result: binds

B3: R35B9 mouse IgG1(D265A), kappa antibody (A402/A403) (antibody)
heavy: EVQLQQSGPELVKPGASVKMSCKASGYIFQDYNMHWVKQSHGKSLEWIGSINPRNGWTNYNQKFKGKATLTVNKSSRSAYMEFRSLTSEDSAVYYCASSGWFTYWGQGTLVTVSAAKTTPPSVYPLAPGSAAQTNSMVTLGCLVKGYFPEPVTVTWNSGSLSSGVHTFPAVLESDLYTLSSSVTVPSSPRPSETVTCNVAHPASSTKVDKKIVPRDCGCKPCICTVPEVSSVFIFPPKPKDVLTITLTPKVTCVVVAISKDDPEVQFSWFVDDVEVHTAQTQPREEQFNSTFRSVSELPIMHQDWLNGKEFKCRVNSAAFPAPIEKTISKTKGRPKAPQVYTIPPPKEQMAKDKVSLTCMITDFFPEDITVEWQWNGQPAENYKNTQPIMNTNGSYFVYSKLNVQKSNWEAGNTFTCSVLHEGLHNHHTEKSLSHSPGK
light: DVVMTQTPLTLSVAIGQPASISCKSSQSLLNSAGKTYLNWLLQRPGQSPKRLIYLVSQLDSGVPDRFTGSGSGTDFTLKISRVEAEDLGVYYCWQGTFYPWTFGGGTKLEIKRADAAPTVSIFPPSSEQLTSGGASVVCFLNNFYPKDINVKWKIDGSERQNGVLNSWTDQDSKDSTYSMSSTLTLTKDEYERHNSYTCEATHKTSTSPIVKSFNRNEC
[2]
  ICAM-1 MFI on HRMC, 250 ng/mL rhTWEAK, mAb 0.1 µg/mL: 5830 MFI
[3]
  binding result: no binding (tested: 20 µg/mL)
[4]
  binding result: binds

B4: 41c Fab (enzymatic digest of the mouse IgG1 antibody) (Fab, V domains shown, not shown: a dimerising Fc or GST)
VH: B1 VH
VL: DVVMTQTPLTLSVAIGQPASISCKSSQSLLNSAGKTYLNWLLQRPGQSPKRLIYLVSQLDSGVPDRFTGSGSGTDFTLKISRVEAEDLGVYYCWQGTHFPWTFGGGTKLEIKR
notes: Made with the mouse IgG1 Fab and F(ab')2 preparation kit; also called 41C Fab LM101416
[5]
  Kd: 3.38 nM
[6]
  Kd: 2.15 nM and 1.81 nM
  koff: 0.00242 s⁻¹ and 0.00266 s⁻¹
  kon: 1.13e+06 M⁻¹ s⁻¹ and 1.47e+06 M⁻¹ s⁻¹
Mouse Fn14-GST
  binding result: binds
[7]
  Kd: 1.98 nM
[8]
  Kd: 3.48 nM and 3.28 nM
  koff: 0.00153 s⁻¹ and 0.00223 s⁻¹
  kon: 441000 M⁻¹ s⁻¹ and 678000 M⁻¹ s⁻¹
